PMC5443158

Tested on: CodY (Streptococcus pneumoniae D39)
Assay: EMSA
Details: lowest CodY concentration giving binding, 10 nM DNA, 5X binding buffer: 20 mM Tris-HCl pH 7.5, 30 mM KCl, 1 mM DTT, 1 mM EDTA, 10% glycerol, room temperature, 30 min (Fig 4A,B) or 20 min (Fig 4C), 20 ul, 8% …

Substance: tpxD promoter probe (FAM)
- binding (2 mM H2O2): 400 nM
- binding (no H2O2, no BCAA): 600 nM
